Assay [1] addresses 120-G564S/320.1. The assay can be described thus: Eu-ligand binding.
Assay [2] deals with 120-G564S/320.1. The assay can be described thus: biotin-ligand binding.
The target of assay [3] is HFD300.1 (HFD300-132K) Wild Type. The assay can be described thus: Eu-ligand saturation binding.
For the next assay, the target named is HFD300.1. The assay can be described thus: 125I-ligand binding.

B1: EU-EGF (ligand)
chain: NSDSECPLSHDGYCLHDGVCMYIEALDKYACNCVVGYIGERCQYRDLKWWELR
Regarding B1, binding with 120-G564S/320.1 [1] was put at a Kd of 0.877 nM. This lies in the sub-nanomolar range.

B2: HB-EGF-biotin (ligand)
chain: DLQEADLDLLRVTLSSKPQALATPNKEEHGKRKKKGKGLGKKRDPCLRKYKDFCIHGECKYVKELRAPSCICHPGYHGERCHGLSL
Turning to B2, binding with 120-G564S/320.1 [2] was characterised by a dissociation constant (Kd) of 0.211 nM.

B3: Eu-NRG1β1 (ligand)
chain: SHLVKCAEKEKTFCVNGGECFMVKDLSNPSRYLCKCPNEFTGDRCQNYVMASFYKHLGIEFMEAE
As for B3, the Kd in assay [3] turned out to be 3.11 nM. This counts as single-digit nanomolar.

B4: NRG1β (ligand)
chain: B3 chain
Take B4: binding in the assay with HFD300.1 was put at a Kd of 12.1 nM.

The record behind these values is patent US20100278801A1 (published 2010).
